According to the supplement of paper PMC10567573:

B1: GFOD1 (parent)
chain: EEAEELAKEMSVPFYTSRIDEVLL

Variants of: B1
Test: protein stability index of a GFP-peptide fusion (GPS, HEK-293T) (PSI 1-6); higher = more stable
Conditions: c terminus: a fixed tail appended
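Further: lentivirally expressed fusions sorted by FACS into six bins by GFP to DsRed ratio, PSI derived from sequencing read proportions per bin multiplied by bin number.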

Row | Variant | protein stability index
1 | EEAEELAKEMSVPFYTSRIDEVLE [L24E] | 4.97
2 | EEAEELAKEMSVPFYTSRIDEVLS [L24S] | 4.41
3 | EEAEELAKEMSVPFYTSRIDEVLM [L24M] | 3.73
4 | EEAEELAKEMSVPFYTSRIDEVLD [L24D] | 5.2
5 | EEAEELAKEMSVPFYTSRIDEVLC [L24C] | 4.04
6 | EEAEELAKEMSVPFYTSRIDEVLT [L24T] | 4.22
7 | EEAEELAKEMSVPFYTSRIDEVLV [L24V] | 4
8 | EEAEELAKEMSVPFYTSRIDEVLY [L24Y] | 3.2
9 | EEAEELAKEMSVPFYTSRIDEVLI [L24I] | 3.75
10 | EEAEELAKEMSVPFYTSRIDEVLF [L24F] | 3.55
11 | EEAEELAKEMSVPFYTSRIDEVLP [L24P] | 4.98
12 | EEAEELAKEMSVPFYTSRIDEVLH [L24H] | 3.18
13 | EEAEELAKEMSVPFYTSRIDEVLG [L24G] | 4.11
14 | EEAEELAKEMSVPFYTSRIDEVLN [L24N] | 4.6
15 | EEAEELAKEMSVPFYTSRIDEVLQ [L24Q] | 4.78
16 | EEAEELAKEMSVPFYTSHIDEVLL [R18H] | 4.57
17 | EEAEELAKEMSVPFYTSCIDEVLL [R18C] | 4.17
18 | EEAEELAKEMSVPFYTSAIDEVLL [R18A] | 4.26
19 | EEAEELAKEMSVPFYTSVIDEVLL [R18V] | 2.64
20 | EEAEELAKEMSVPFYTSDIDEVLL [R18D] | 4.79
21 | EEAEELAKEMSVPFYTSIIDEVLL [R18I] | 2.92
22 | EEAEELAKEMSVPFYTSPIDEVLL [R18P] | 4.15
23 | EEAEELAKEMSVPFYTSMIDEVLL [R18M] | 3.43
24 | EEAEELAKEMSVPFYTSNIDEVLL [R18N] | 4.4

Row | Variant | protein stability index
25 | EEAEELAKEMSVPFYTSTIDEVLL [R18T] | 4.27
26 | EEAEELAKEMSVPFYTSSIDEVLL [R18S] | 4.56
27 | EEAEELAKEMSVPFYTSEIDEVLL [R18E] | 4.65
28 | EEAEELAKEMSVPFYTSQIDEVLL [R18Q] | 4.69
29 | EEAEELAKEMSVPFYTSFIDEVLL [R18F] | 3.17
30 | EEAEELAKEMSVPFYTSLIDEVLL [R18L] | 3.05
31 | EEAEELAKEMSVPFYTSYIDEVLL [R18Y] | 4.04
32 | EEAEELAKEMSVPFYTSWIDEVLL [R18W] | 3.71
33 | EEAEELAKEMSVPFYTSKIDEVLL [R18K] | 4.26
34 | EEAEELAKEMSVPFATSRIDEVLL [Y15A] | 4.47
35 | EEAEELAKEMSVPFWTSRIDEVLL [Y15W] | 3.1
36 | EEAEELAKEMSVPFQTSRIDEVLL [Y15Q] | 4.42
37 | EEAEELAKEMSVPFTTSRIDEVLL [Y15T] | 4.91
38 | EEAEELAKEMSVPFKTSRIDEVLL [Y15K] | 4.41
39 | EEAEELAKEMSVPFMTSRIDEVLL [Y15M] | 4.14
40 | EEAEELAKEMSVPFETSRIDEVLL [Y15E] | 4.99
41 | EEAEELAKEMSVPFLTSRIDEVLL [Y15L] | 3.67
42 | EEAEELAKEMSVPFRTSRIDEVLL [Y15R] | 4.2
43 | EEAEELAKEMSVPFNTSRIDEVLL [Y15N] | 4.83
44 | EEAEELAKEMSVPFITSRIDEVLL [Y15I] | 3.62
45 | EEAEELAKEMSVPFFTSRIDEVLL [Y15F] | 3.61
46 | EEAEELAKEMSVPFPTSRIDEVLL [Y15P] | 5
47 | EEAEELAKEMSVPFSTSRIDEVLL [Y15S] | 5.01
48 | EEAEELAKEMSVPFCTSRIDEVLL [Y15C] | 3.97

Row | Variant | protein stability index
49 | EEAEELAKEMSVPFGTSRIDEVLL [Y15G] | 4.97
50 | EEAEELAKEMSVPFHTSRIDEVLL [Y15H] | 4.77
51 | EEAEELAKEMSVPFYTNRIDEVLL [S17N] | 4.04
52 | EEAEELAKEMSVPFYTIRIDEVLL [S17I] | 2.38
53 | EEAEELAKEMSVPFYTYRIDEVLL [S17Y] | 2.94
54 | EEAEELAKEMSVPFYTLRIDEVLL [S17L] | 2.09
55 | EEAEELAKEMSVPFYTRRIDEVLL [S17R] | 3.9
56 | EEAEELAKEMSVPFYTARIDEVLL [S17A] | 3.09
57 | EEAEELAKEMSVPFYTWRIDEVLL [S17W] | 3
58 | EEAEELAKEMSVPFYTVRIDEVLL [S17V] | 3.12
59 | EEAEELAKEMSVPFYTTRIDEVLL [S17T] | 3.29
60 | EEAEELAKEMSVPFYTKRIDEVLL [S17K] | 3.87
61 | EEAEELAKEMSVPFYTPRIDEVLL [S17P] | 4.43
62 | EEAEELAKEMSVPFYTFRIDEVLL [S17F] | 1.79
63 | EEAEELAKEMSVPFYTERIDEVLL [S17E] | 4.27
64 | EEAEELAKEMSVPFYTCRIDEVLL [S17C] | 2.52
65 | EEAEELAKEMSVPFYTHRIDEVLL [S17H] | 3.71
66 | EEAEELAKEMSVPFYTDRIDEVLL [S17D] | 4.98
67 | EEAEELAKEMSVPFYTQRIDEVLL [S17Q] | 3.27
68 | EEAEELAKEMSVVFYTSRIDEVLL [P13V] | 2.74
69 | EEAEELAKEMSVWFYTSRIDEVLL [P13W] | 1.97
70 | EEAEELAKEMSVPFYTSRIDWVLL [E21W] | 1.83
71 | EEAEELAKEMSVPFYTSRIDLVLL [E21L] | 1.61
72 | EEAEELAKEMSVPFYTSRIDYVLL [E21Y] | 2.66

Row | Variant | protein stability index
73 | EEAEELAKEMSVPFYTSRIDVVLL [E21V] | 2.45
74 | EEAEELAKEMSVPFYTSRIDQVLL [E21Q] | 3.39
75 | EEAEELAKEMSVPFYTSRIDDVLL [E21D] | 4.08
76 | EEAEELAKEMSVPFYTSRIDNVLL [E21N] | 3.69
77 | EEAEELAKEMSVPFYTSRIDTVLL [E21T] | 3.65
78 | EEAEELAKEMSVPFYTSRIDKVLL [E21K] | 2.56
79 | EEAEELAKEMSVPFYTSRIDSVLL [E21S] | 3.83
80 | EEAEELAKEMSVPFYTSRIDAVLL [E21A] | 2.66
81 | EEAEELAKEMSVPFYTSRIDPVLL [E21P] | 3.92
82 | EEAEELAKEMSVPFYTSRIDCVLL [E21C] | 1.97
83 | EEAEELAKEMSVPFYTSRIDFVLL [E21F] | 1.42
84 | EEAEELAKEMSVPFYTSRIDRVLL [E21R] | 2.8
85 | EEAEELAKEMSVPFYTSRIDMVLL [E21M] | 1.78
86 | EEAEELAKEMSVPFYTSRIDELLL [V22L] | 3.1
87 | EEAEELAKEMSVPFYTSRIDETLL [V22T] | 4.51
88 | EEAEELAKEMSVPFYTSRIDEDLL [V22D] | 5.23
89 | EEAEELAKEMSVPFYTSRIDEHLL [V22H] | 4.68
90 | EEAEELAKEMSVPFYTSRIDEILL [V22I] | 3.23
91 | EEAEELAKEMSVPFYTSRIDEFLL [V22F] | 3.73
92 | EEAEELAKEMSVPFYTSRIDEQLL [V22Q] | 4.65
93 | EEAEELAKEMSVPFYTSRIDESLL [V22S] | 3.86
94 | EEAEELAKEMSVPFYTSRIDEPLL [V22P] | 4.24
